Data as given in article PMC12279946.
Numbering of substitutions follows the chain as printed.

Legend:
[1] = molecular target: SprT-BR;mono-ubiquitin (Ub1) (Homo sapiens?;, UniProt Q9H040;P0CG48 28-245;1-76, |); assay: NMR 1H,15N-HSQC; 200 uM DNA + 500 uM Ub1; synergistic severe line broadening; NMR: 20 mM HEPES/KOH pH 7.2, 150 mM KCl, 10% D2O, 308 K; 100 uM protein, 2x dsDNA, 5x Ub1; settings: protein: recombinant;recombinant; copies: 1;1; blunt
SprT-BR-L99S = molecular target: T1, SprT-BR-L99S (UniProt Q9H040 28-245, L99S); assay: NMR 1H,15N-HSQC; 100 uM protein, 200 uM DNA; no ubiquitin; line broadening comparable to WT; NMR: 20 mM HEPES/KOH pH 7.2, 150 mM KCl, 10% D2O, 308 K; 100 uM protein, 2x dsDNA, 5x Ub1; settings: protein: recombinant; blunt
T1 sequence: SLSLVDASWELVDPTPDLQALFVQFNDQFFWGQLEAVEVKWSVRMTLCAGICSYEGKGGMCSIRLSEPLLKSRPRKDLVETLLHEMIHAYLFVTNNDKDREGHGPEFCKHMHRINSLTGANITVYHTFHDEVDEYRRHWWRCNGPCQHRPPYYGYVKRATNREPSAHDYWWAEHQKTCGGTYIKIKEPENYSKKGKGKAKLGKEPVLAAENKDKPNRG

SprT-BR = molecular target: T2, SprT-BR (UniProt Q9H040 28-245); assay: NMR 1H,15N-HSQC; 100 uM protein, 200 uM DNA; no ubiquitin; line broadening in ZBD-BR; NMR: 20 mM HEPES/KOH pH 7.2, 150 mM KCl, 10% D2O, 308 K; 100 uM protein, 2x dsDNA, 5x Ub1; settings: protein: recombinant; blunt
T2 sequence: T1 sequence with S72L

Measured: binding result

B1: 15-bp dsDNA (NMR) (dsDNA)
DNA 1: CCTTGCTAGGACATC
DNA 2: GATGTCCTAGCAAGG
binds: all assays above
